# From patent US7090843B1, “Recombinant anti-CD30 antibodies and uses thereof” (Seattle Genetics, Inc., priority 2000, dated 2006)
# Read-outs that look alike come from different tables or passages of the source.
# Tests used:
# [1] = tested on: HD cell line L428; assay: Chemotherapeutic drugs on L428 cells pre-cultured with or without cross-linked AC10 (3H-thymidine); format: cell-based
# Procedure: L428 cells were cultured for 24 hours in the presence or absence of 0.1 μg/ml anti-CD30 antibody, AC10, crosslinked by the addition of 20 μg/ml goat anti-mouse IgG antibodies. After the 24-hour culture period, the cells were harvested and washed with phosphate buffered saline (PBS). The cells were then plated into 96-well flat-bottom tissue culture plates at 5×10^3 cells/well and mixed with various dilutions of chemotherapeutic drugs. After a 1-hour exposure to the drugs the cells were washed twice, followed by the addition of fresh culture media. The plates were then incubated at 37° C. for 72 hours followed by a 4-hour incubation with 0.5 μCi/well ^3H-thymidine. The inhibition of growth was determined by comparing the amount of ^3H-thymidine incorporated into treated cells to the amount incorporated into untreated control cells.
# To evaluate the effect of the anti-CD30 mAb in combination with chemotherapeutic drugs, L428 cells were incubated for 24 hours in either the absence of antibody or the presence of AC10 at 0.1 μg/ml with 20 μg/ml goat anti-mouse IgG to provide crosslinking for the primary antibody. After this incubation the cells were plated into 96-well tissue culture plates at 5×10^3 cells/well in the presence of dilutions of chemotherapeutic drugs including doxorubicin, cisplatin, and etoposide (Table 3). The EC50, concentration of drug needed to inhibit the incorporation of ^3H-thymidine by 50% compared to untreated control cells, was then determined for cells treated with the drugs alone or the combinations of drug and antibody.
# [2] = tested on: L540; assay: Proliferation assay (3H-thymidine incorporation), immobilized or cross-linked anti-CD30 mAbs; format: cell-based
# Procedure: (§1) Proliferation assays: CD30 expressing cell lines were cultured in flat-bottom 96-well plates at a density of 50,000 or 5,000 cells/well in growth media (RPMI with 10% fetal bovine serum (FBS) for cell lines L428, KM-H2 and Karpas 299, and RPMI/20% FBS for cell lines HDLM-2 and L540. The cell lines were cultured in the absence or presence of cross-linked soluble anti-CD30 mAbs or immobilized anti-CD30 mAbs, as described below.
# (§2) Antibody cross-linking in solution: To cross-link the anti-CD30 antibodies in solution, various dilutions of AC10 or HeFi-1 were titrated into 96-well flat bottom tissue culture plates in the absence or presence of 20 μg/ml polyclonal goat anti-mouse IgG antibodies. Hodgkin's disease cell lines were then added to the plates at either 50,000 or 5,000 cells/well. The plates were incubated at 37° C. for 72 hours and were labeled with ^3H-thymidine, 1 μCi/well, for the final 5 hours.
# (§3) Antibody immobilization: Antibody immobilization was obtained by coating wells with antibody in 50 mmol/L Tris buffer (pH 8.5) for 18 hours at 4° C. Prior to the addition of cells, wells were washed twice with PBS to remove unbound mAb. 50,000 or 5,000 cells in a total volume of 200 μl were added to each well. Proliferation was determined by uptake of ^3H-thymidine (0.5 μCi/well) during the final 8 hours of a 72 hour culture period.
# [3] = tested on: HDLM-2; assay: as above; format: cell-based
# Procedure: as §1, §2, §3
# [4] = tested on: KM-H2; assay: as above; format: cell-based
# Procedure: as §1, §2, §3
# [5] = tested on: L428; assay: as above; format: cell-based
# Procedure: as §1, §2, §3
# [6] = tested on: L428; conditions: co-culture with mAb; cited from earlier work
# [7] = tested on: ALCL tumor xenografts; conditions: Tian et al., 1995; cited from earlier work
# [8] = tested on: L540cy Hodgkin's disease xenografts; assay: Disseminated L540cy Hodgkin's disease xenograft; format: in vivo, SCID mice; conditions: 1 mg/kg/injection i.p. q2d×10 from d1 (FIG. 5A)
# Procedure: (§4) Human tumor xenograft models: Female C.B-17 SCID mice, obtained from Taconic (Germantown, N.Y.) at 4–6 weeks of age, were used for all efficacy studies. To establish xenograft models of Hodgkin's disease, L540cy (HD) cells were harvested from cell culture, washed in ice cold phosphate buffered saline (PBS), resuspended in PBS, and maintained on ice until implantation. For disseminated disease models, mice were injected intravenously through the tail vein with 10^7 L540cy cells. Solid tumor xenografts were established by injecting mice subcutaneously (s.c.) with 2×10^7 L540cy cells. For therapeutic evaluation the indicated treatment doses and schedules were used.
# Administration of AC10 and HeFi-1: Disseminated L540cy tumor bearing mice received 10^7 cells through the tail vein on d0 followed by therapy initiated on d1. Treated mice received i.p. injections of either AC10 or HeFi-1 every two days for a total of 10 injections, q2d×10, at 1 mg/kg/injection.
# [9] = tested on: L540 cells; assay: Co-cultivation of L540 cells with antibodies, isolation of sCD30 from culture supernatant; format: cell-based; conditions: L540 cells co-cultivated with antibody
# Text: At the Fourth Workshop on Leukocyte Differentiation Antigens in Vienna in February 1989, monoclonal antibodies were submitted by three different laboratories and finally characterized as belonging to the CD30 group. […] However, the antibody Ber-H2 also labels a subpopulation of plasma cells (Schwarting et al., 1988, Blood 74:1678–1689) and G. Pallesen (G. Pallesen, 1990, Histopathology 16:409–413) describes, on page 411, that Ber-H2 is cross-reacting with an epitope of an unrelated antigen which is altered by formaldehyde.
# [10] = tested on: L540; conditions: co-culture with mAb; cited from earlier work
# [11] = tested on: L540cy Hodgkin's disease xenografts; assay: Subcutaneous L540cy Hodgkin's disease xenograft; format: in vivo, SCID mice; conditions: tumors >150 mm^3 at start, 2 mg/kg twice per week, five injections (FIG. 6)
# Procedure: as §4
# For the subcutaneous L540cy model, mice were injected s.c. with 2×10^7 cells and were observed daily for solid tumor formation. When tumors were palpable, the animals were randomly distributed into groups and received either AC10 or HeFi-1 q2d×10 at 2 mg/kg/injection.
# To evaluate the efficacy of cAC10 in vivo, SCID mice were implanted subcutaneously with L540cy cells as described above. When the tumors reached an average size of greater than 150 mm^3 the mice were divided into groups that were either untreated or treated with 2 mg/kg cAC 10 twice per week for a total of five injections. The tumors in the untreated mice rapidly grew to an average size of greater than 600 mm^3 (FIG. 6).
# [12] = Homo sapiens, L-428, L428, combination of drug and AC10 0.1 μg/ml cross-linked, read-out: EC50 (after incubation with AC10)
# [13] = Homo sapiens, L-428, L428, drug alone, read-out: EC50 (drug alone)
# [14] = Homo sapiens, L-428, L428, 24 hours with 0.1 μg/ml AC10 cross-linked with 20 μg/ml goat anti-mouse IgG, then 1-hour drug exposure, 72 hours, read-out: EC50, nM with AC10
# [15] = Homo sapiens, L-428, L428, no antibody, 1-hour drug exposure, 72 hours, read-out: EC50, nM without AC10
# [16] = soluble mAb 0.1 μg/ml cross-linked with 20 μg/ml goat anti-mouse IgG, 5×10^4 cell/well, 72 hours (FIG. 3)
# [17] = soluble mAb cross-linked with 20 μg/ml goat anti-mouse IgG, 5×10^3 cell/well, 72 hours (FIG. 4)
# [18] = immobilized mAb 10 μg/ml, 5,000 cells/well, 72 hours (FIG. 2)
# [19] = immobilized mAb 10 μg/ml, 50,000 cells/well, 72 hours (FIG. 1)
Molecule,"EC50 [1, 12] [nM]","EC50 [1, 13] [nM]","EC50 [1, 14] [nM]","EC50 [1, 15] [nM]","cell growth (3H-thymidine incorporation) [2, 16]","cell growth (3H-thymidine incorporation) [2, 17]","cell growth (3H-thymidine incorporation) [3, 16]","cell growth (3H-thymidine incorporation) [3, 17]","cell growth (3H-thymidine incorporation) [4, 16]","cell growth (3H-thymidine incorporation) [5, 16]","cell growth (3H-thymidine incorporation) [5, 17]",signs of disease [8],also measured
N.N.[Cl][Pt][Cl] [Cisplatin],,,,,,,,,,,,,"EC50 ([1]; L428, combination of drug and AC10 0.1 μg/ml cross-linked, read-out: EC50 (after incubation with AC10)): ~500 nM; EC50 ([1]; L428, drug alone, read-out: EC50 (drug alone)): ~1500 nM; EC50 ([1]; L428, 24 hours with 0.1 μg/ml AC10 cross-linked with 20 μg/ml goat anti-mouse IgG, then 1-hour drug exposure, 72 hours, read-out: EC50, nM with AC10): 1500 nM; EC50 ([1]; L428, no antibody, 1-hour drug exposure, 72 hours, read-out: EC50, nM without AC10): 500 nM"
COc1cccc2c1C(=O)c1c(O)c3c(c(O)c1C2=O)C[C@@](O)(C(=O)CO)C[C@@H]3O[C@H]1C[C@H](N)[C@H](O)[C@H](C)O1 [Doxorubicin],~9,~45,45,9,,,,,,,,,
COc1cc([C@@H]2c3cc4c(cc3[C@@H](O[C@@H]3O[C@@H]5CO[C@@H](C)O[C@H]5[C@H](O)[C@H]3O)[C@H]3COC(=O)[C@H]23)OCO4)cc(OC)c1O [Etoposide],~600,~1500,1500,600,,,,,,,,,
"HeFi-1: anti-CD30 mAb produced by immunizing mice with the L428 Hodgkin's disease cell line (antibody, V domains shown) VH: EVKLVESGGGLVQPGGSLRLSCATSGFTFSDYYMNWVRQPPGKALEWLGFIRNKANGYTTEFSASVMGRFTISRDDSQSILYLQMNTLRAEDSATYYCARDPPYGNPHYYAMDYWGQGTSVTVSS VL: DIVLTQSPASLAVSLGQRATISCRASKSVSASGYNYMHWYQQKAGQPPKLLIHLASNLESGVPARFSGSGSGTDFTLNIHPVEEEDASTYYCQHSGELPFTFGSGTKLEIK",,,,,growth inhibited,growth inhibited,growth inhibited,growth inhibited,growth inhibited,growth inhibited,growth inhibited,no signs of disease,viability of the cell line on co-culture [6]: failed to reveal any direct effect; survival of SCID mice bearing ALCL tumor xenografts [7]: prolonged survival; release of the sCD30 [9]: weakly enhanced; viability of the cell line on co-culture [10]: failed to reveal any direct effect
"AC10: murine anti-CD30 monoclonal antibody prepared against human NK-like cell line YT; hybridoma deposit ATCC PTA-6679 (antibody, listed as Mus musculus, V domains shown) VH: QIQLQQSGPEVVKPGASVKISCKASGYTFTDYYITWVKQKPGQGLEWIGWIYPGSGNTKYNEKFKGKATLTVDTSSSTAFMQLSSLTSEDTAVYFCANYGNYWFAYWGQGTQVTVSA VL: DIVLTQSPASLAVSLGQRATISCKASQSVDFDGDSYMNWYQQKPGQPPKVLIYAASNLESGIPARFSGSGSGTDFTLNIHPVEEEDAATYYCQQSNEDPWTFGGGTKLEIK",,,,,growth inhibited,growth inhibited,growth inhibited,growth inhibited,growth inhibited,growth inhibited,growth inhibited,no signs of disease,"cell growth (3H-thymidine incorporation) [2, 18]: growth inhibition; cell growth (3H-thymidine incorporation) [2, 19]: inhibition of cell growth; cell growth (3H-thymidine incorporation) [3, 18]: growth inhibition; cell growth (3H-thymidine incorporation) [3, 19]: inhibition of cell growth; cell growth (3H-thymidine incorporation) [4, 18]: growth inhibition; cell growth (3H-thymidine incorporation) [4, 19]: inhibition of cell growth; cell growth (3H-thymidine incorporation) ([4]; soluble mAb 0.11 g/ml cross-linked with 20 μg/ml goat anti-mouse IgG, 5×10^3 cell/well, 72 hours (FIG. 4)): growth inhibited; cell growth (3H-thymidine incorporation) [5, 18]: growth inhibition; cell growth (3H-thymidine incorporation) [5, 19]: inhibition of cell growth"
"cAC10: chimeric antibody: AC10 heavy and light chain variable regions with human gamma 1 and kappa constant regions (antibody, left off: a dimerising Fc or GST, chimeric antibody: AC10 heavy and light chain variable regions with human gamma 1 and kappa constant regions) heavy: QIQLQQSGPEVVKPGASVKISCKASGYTFTDYYITWVKQKPGQGLEWIGWIYPGSGNTKYNEKFKGKATLTVDTSSSTAFMQLSSLTSEDTAVYFCANYGNYWFAYWGQGTQVTVSA light: DIVLTQSPASLAVSLGQRATISCKASQSVDFDGDSYMNWYQQKPGQPPKVLIYAASNLESGIPARFSGSGSGTDFTLNIHPVEEEDAATYYCQQSNEDPWTFGGGTKLEIK",,,,,,,,,,,,,average tumor size [11]: remained about the same size
